From patent US20220218790A1 (UNIVERSITY OF SHEFFIELD, published 2022)
Blank lines part the entries; values can stand above or below the binder they belong to.

Target: T1, PTH receptor of the PTH responsive cell line UMR-106 (rat osteoblastic like cell line) (rat, UniProt P25961 27-591)
T1 sequence (looked up): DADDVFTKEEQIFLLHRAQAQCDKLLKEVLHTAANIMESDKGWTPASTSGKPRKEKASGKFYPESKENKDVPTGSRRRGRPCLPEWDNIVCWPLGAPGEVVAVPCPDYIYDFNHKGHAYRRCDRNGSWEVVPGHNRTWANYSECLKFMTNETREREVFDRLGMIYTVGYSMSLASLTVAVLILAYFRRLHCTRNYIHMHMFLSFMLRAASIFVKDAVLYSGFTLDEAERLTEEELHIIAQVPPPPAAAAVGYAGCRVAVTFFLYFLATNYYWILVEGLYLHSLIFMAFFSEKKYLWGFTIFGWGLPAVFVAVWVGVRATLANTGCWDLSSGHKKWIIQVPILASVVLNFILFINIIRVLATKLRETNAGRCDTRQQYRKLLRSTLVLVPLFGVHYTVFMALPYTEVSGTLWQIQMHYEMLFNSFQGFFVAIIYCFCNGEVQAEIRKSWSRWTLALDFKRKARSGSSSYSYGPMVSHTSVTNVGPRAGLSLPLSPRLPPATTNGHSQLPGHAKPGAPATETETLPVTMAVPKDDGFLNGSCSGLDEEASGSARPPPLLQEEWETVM
Assay: cell-based or functional assay

Dual Luciferase Reporter Assay, fold increase of 14A2c over 14A3b at 100 nM: ~1.3 fold | Dual Luciferase Reporter Assay, fold increase of 14A2c over 14A3b at 500 nM: ~1.6 fold | EC50, Dual Luciferase Reporter Assay, UMR-106 cells: 579 nM | fold increase in cAMP levels over 14A3b, UMR-106 cells, 500 nM: 11 fold
B1: 14A2c = PTHss-pp-PTH (1-34)-(g4s)4-PTHrExt-(g4s)4-GHbp (other)
chain: SVSEIQLMHNLGKHLNSMERVEWLRKKLQDVHNFGGGGSGGGGSGGGGSGGGGSDDVMTKEEQIFLLHRAQAQCEKRLKEVLQRPASIMESDKGWTSASTSGKPRKDKASGKLYPESEEDKEAPTGSRYRGRPCLPEWDHILCWPLGAPGEVVAVPCPDYIYDFNHKGHAYRRCDRNGSWELVPGHNRTWANYSECVKFLTNETREREVFDRLGGGGSGGGGSGGGGSGGGGSFSGSEATAAILSRAPWSLQSVNPGLKTNSSKEPKFTKCRSPERETFSCHWTDEVHHGTKNLGPIQLFYTRRNTQEWTQEWKECPDYVSAGENSCYFNSSFTSIAIPYCIKLTSNGGTVDEKCFSVDEIVQPDPPIALNWTLLNVSLTGIHADIQVRWEAPRNADIQKGWMVLEYELQYKEVNETKWKMMDPILTTSVPVYSLKVDKEYEVRVRSKQRNSGNYGEFSEVLYVTLPQMSQ

EC50, Dual Luciferase Reporter Assay, UMR-106 cells: 896 nM
B2: 14A3b = GHss-PTH (1-34)-(g4s)4-PTHrExt-(g4s)4-GHbp (other)
chain: B1 chain

EC50, Dual Luciferase Reporter Assay, UMR-106 cells: 153 nM | fold by which PTH is more potent than this fusion (EC50, Dual Luciferase Reporter Assay): 4.7 fold
B3: 14A7 = PTHss-pp-PTH(1-34)-(g4s)4-GHbp (other)
chain: SVSEIQLMHNLGKHLNSMERVEWLRKKLQDVHNFGGGGSGGGGSGGGGSGGGGSFSGSEATAAILSRAPWSLQSVNPGLKTNSSKEPKFTKCRSPERETFSCHWTDEVHHGTKNLGPIQLFYTRRNTQEWTQEWKECPDYVSAGENSCYFNSSFTSIAIPYCIKLTSNGGTVDEKCFSVDEIVQPDPPIALNWTLLNVSLTGIHADIQVRWEAPRNADIQKGWMVLEYELQYKEVNETKWKMMDPILTTSVPVYSLKVDKEYEVRVRSKQRNSGNYGEFSEVLYVTLPQMSQ
